Experiment [1] deals with CdiI536-T18 (bacterial two-hybrid fusion) (E. coli UPEC 536). Description: two-hybrid.
For experiment [2], the target named is CdiI3937-2-T18 (bacterial two-hybrid fusion) (Dickeya dadantii 3937) (UniProt E0SDG7). Description: two-hybrid.

We go through two substances from PMC3058911.

UniProt E0SDG7, sequence (E0SDG7 whole entry, the tested form may be a part): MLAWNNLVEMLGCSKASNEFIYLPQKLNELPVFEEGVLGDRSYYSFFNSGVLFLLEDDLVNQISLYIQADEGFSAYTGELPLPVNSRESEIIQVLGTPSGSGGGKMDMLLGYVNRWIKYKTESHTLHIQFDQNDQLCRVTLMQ

In experiment [1], “T25-CdiA-CT536 (bacterial two-hybrid fusion) (domain or fragment)” returned a β-galactosidase activity of over 300 units.

“T25-CdiA-CT3937-2 (bacterial two-hybrid fusion) (from UniProt E0SDG8 1-3326) (domain or fragment)”: in experiment [2], the β-galactosidase activity was over 300 units.
